Measurements reported in paper PMC9637899, “Outer surface lipoproteins from the Lyme disease spirochete exploit the molecular switch mechanism of the complement protease C1s” (The Journal of Biological Chemistry, 2022).

Molecular target: T1, activated C1s–CCP1–CCP2–SP (human, UniProt P09871 292-688)
T1 construct: human complement C1s, C-terminal domains CCP1, CCP2 and serine protease (SP); Cleaved by C1r into two chains (confirmed by reducing SDS-PAGE); Tag removal is inferred: only the c-Myc S632A form 'was not subjected to His-TEV cleavage'; also called wildtype C1s–CCP1–CCP2–SP
T1 sequence: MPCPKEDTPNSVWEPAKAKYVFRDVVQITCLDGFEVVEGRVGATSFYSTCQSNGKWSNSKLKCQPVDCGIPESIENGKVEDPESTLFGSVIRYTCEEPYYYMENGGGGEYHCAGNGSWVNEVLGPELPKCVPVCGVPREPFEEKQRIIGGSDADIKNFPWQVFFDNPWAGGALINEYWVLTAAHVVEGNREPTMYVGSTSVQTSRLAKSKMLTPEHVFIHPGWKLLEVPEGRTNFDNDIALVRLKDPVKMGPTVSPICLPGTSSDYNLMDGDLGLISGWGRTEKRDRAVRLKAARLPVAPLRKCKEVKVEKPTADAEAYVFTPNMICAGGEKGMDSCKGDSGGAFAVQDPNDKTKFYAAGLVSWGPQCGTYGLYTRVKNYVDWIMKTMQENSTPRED
Assay: SPR; Elp truncation amine-coupled to a CMD200 chip; multicycle twofold injection series of C1s enzyme or activated C1s–CCP1–CCP2–SP constructs from 200 nM; HBS-T Ca2+ (10 mM Hepes pH 7.3, 140 mM NaCl, 0.005% Tween-20, 5 mM CaCl2), 30 ul/min; K_(D, kin) from a kinetic and K_(D, ss) from a steady-state 1:1 (Langmuir) fit; triplicate
Settings: both partners purified

B1: ElpB_(182–378) (domain or fragment)
chain: QERKAKAEKEAKEKAERQKQEEQQKRKAEKEREEQRKEAEKRQVDNEIRTLTGKIDEINRNIDVIKEQTSVGAQGVIDRITGPVYDDFTDGNKAIYKTWGDLEDDNDEGLGKLLKELSDTRHNLRTKLNEGNKAYIIDTRSTEPQLKENVSVSEIKSDLDELKSKLEEVKEYLEDKDNFEEIKEYVAGSEDNYDEED
notes: ElpB (ErpB) of B. burgdorferi, residues 182-378; also called C-terminal domain of ElpB; not shown: His6 (from the vector pT7HMT), N-terminal, cleaved; c-Myc (from the vector pT7HMT), N-terminal, cleaved
- Kd: 360 ± 17 nM
